These results are taken from patent publication US20220064329A1 (Novo Nordisk, published 2022).

For orientation: Kd means the constant that tells how readily two partners part at equilibrium.

T1: recombinant human activated Factor VII (FVIIa) (human, UniProt P08709 61-212; P08709 213-466, ten glutamate residues of the Gla domain may be gamma-carboxylated)
T1 construct: chains tethered by a disulfide bond; also called Factor VIIa; rFVIIa
T1 sequence 1: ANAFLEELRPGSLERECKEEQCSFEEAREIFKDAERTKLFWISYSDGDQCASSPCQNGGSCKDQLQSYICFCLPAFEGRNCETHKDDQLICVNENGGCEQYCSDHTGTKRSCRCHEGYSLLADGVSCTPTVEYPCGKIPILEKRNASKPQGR
T1 sequence 2: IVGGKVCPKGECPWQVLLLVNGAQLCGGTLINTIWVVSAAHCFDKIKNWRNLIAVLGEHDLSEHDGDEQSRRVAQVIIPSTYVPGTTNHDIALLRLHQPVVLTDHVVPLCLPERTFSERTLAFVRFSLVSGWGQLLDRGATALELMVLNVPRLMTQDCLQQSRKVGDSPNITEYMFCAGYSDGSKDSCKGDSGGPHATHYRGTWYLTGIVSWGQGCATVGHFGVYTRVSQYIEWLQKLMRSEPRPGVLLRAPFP

B1: VH SEQ ID NO 554 / VL SEQ ID NO 478 (antibody, IgG4, V domains shown)
VH: QVQLQESGPGLVKPSDTLSLTCAVSGYSISSDSAWSWIRQFPGKGLEWIGYIQYSGSTNYNPSLKSRVTMSVDTSKNQFSLKLSSVTALDTAVYYCARSVNYYGNSFAVGPWGQGTLVTVSS
VL: EIVLTQSPATLSLSPGERATLSCRASQGVSDYLHWYQQKPGQAPRLLIKYASQPATGIPARFSGSGSGTDFTLTISSLEPEDFAVYYCQQGHSFPLTFGQGTKLEIK
notes: humanized 11F2; IgG4 S228P/kappa
B2: VH SEQ ID NO 562 / VL SEQ ID NO 382 (antibody, IgG4, V domains shown)
VH: QVQLQESGPGLVKPSDTLSLTCAVSGYSISSDSAWSWIRQPPGKGLEWIGYIQYSGSTNYNPSLKSRVTMSRDTSKNQFSLKLSSVTALDTAVYYCARSVNYYGNSFAVGPWGQGTLVTVSS
VL: EIVLTQSPATLSLSPGERATLSCRASQGLSDYLHWYQQKPGEAPRLLIKYASQPATGIPARFSGSGSGTDFTLTISSLEPEDFAVYYCQNGHSFPLTFGQGTKLEIK
notes: as for B1
B3: VH SEQ ID NO 562 / VL SEQ ID NO 430 (antibody, IgG4, V domains shown)
VH: QVQLQESGPGLVKPSDTLSLTCAVSGYSISSDSAWSWIRQPPGKGLEWIGYIQYSGSTNYNPSLKSRVTMSRDTSKNQFSLKLSSVTALDTAVYYCARSVNYYGNSFAVGPWGQGTLVTVSS
VL: EIVLTQSPATLSLSPGERATLSCRASQGVSDYLAWYQQKPGQAPRLLIKYASQPATGIPARFSGSGSGTDFTLTISSLEPEDFGVYYCQNGHSFPLTFGQGTKLEIK
notes: as for B1
B4: VH SEQ ID NO 554 / VL SEQ ID NO 486 (antibody, IgG4, V domains shown)
VH: QVQLQESGPGLVKPSDTLSLTCAVSGYSISSDSAWSWIRQFPGKGLEWIGYIQYSGSTNYNPSLKSRVTMSVDTSKNQFSLKLSSVTALDTAVYYCARSVNYYGNSFAVGPWGQGTLVTVSS
VL: EIVLTQSPATLSLSPGERATLSCRASQGVSDYLHWYQQKPGQAPRLLIKYASQPATGIPARFSGSGSGTDFTLTISSLEPEDFGVYYCQNGHSFPLTFGQGTKLEIK
notes: as for B1
B5: VH SEQ ID NO 554 / VL SEQ ID NO 502 (antibody, IgG4, V domains shown)
VH: QVQLQESGPGLVKPSDTLSLTCAVSGYSISSDSAWSWIRQFPGKGLEWIGYIQYSGSTNYNPSLKSRVTMSVDTSKNQFSLKLSSVTALDTAVYYCARSVNYYGNSFAVGPWGQGTLVTVSS
VL: EIVLTQSPATLSLSPGERATLSCRASQGVSDYLHWYQQKPGQAPRLLIKYTSQPATGIPARFSGSGSGTDFTLTISSLEPEDFAVYYCQNGHSFPLTFGQGTKLEIK
notes: as for B1
B6: VH SEQ ID NO 562 / VL SEQ ID NO 342 (antibody, IgG4, V domains shown)
VH: QVQLQESGPGLVKPSDTLSLTCAVSGYSISSDSAWSWIRQPPGKGLEWIGYIQYSGSTNYNPSLKSRVTMSRDTSKNQFSLKLSSVTALDTAVYYCARSVNYYGNSFAVGPWGQGTLVTVSS
VL: EIVLTQSPATLSLSPGERATLSCRASQGISDYLHWYQQKPGQAPRLLIKYTSQPATGIPARFSGSGSGRDFTLTISSLEPEDFAVYYCQNGHSFPLTFGAGTKLELK
notes: as for B1
B7: VH SEQ ID NO 562 / VL SEQ ID NO 422 (antibody, IgG4, V domains shown)
VH: QVQLQESGPGLVKPSDTLSLTCAVSGYSISSDSAWSWIRQPPGKGLEWIGYIQYSGSTNYNPSLKSRVTMSRDTSKNQFSLKLSSVTALDTAVYYCARSVNYYGNSFAVGPWGQGTLVTVSS
VL: EIVLTQSPATLSLSPGERATLSCRASQGVSDYLAWYQQKPGQAPRLLIKYASQPATGIPARFSGSGSGTDFTLTISSLEPEDFAVYYCQQGHSFPLTFGQGTKLEIK
notes: as for B1
B8: VH SEQ ID NO 554 / VL SEQ ID NO 494 (antibody, IgG4, V domains shown)
VH: QVQLQESGPGLVKPSDTLSLTCAVSGYSISSDSAWSWIRQFPGKGLEWIGYIQYSGSTNYNPSLKSRVTMSVDTSKNQFSLKLSSVTALDTAVYYCARSVNYYGNSFAVGPWGQGTLVTVSS
VL: EIVLTQSPATLSLSPGERATLSCRASQGVSDYLHWYQQKPGQAPRLLIKYASQPATGIPARFSGSGSGTDFTLTISSLEPEDVAVYYCQNGHSFPLTFGQGTKLEIK
notes: as for B1
B9: VH SEQ ID NO 562 / VL SEQ ID NO 326 (antibody, IgG4, V domains shown)
VH: QVQLQESGPGLVKPSDTLSLTCAVSGYSISSDSAWSWIRQPPGKGLEWIGYIQYSGSTNYNPSLKSRVTMSRDTSKNQFSLKLSSVTALDTAVYYCARSVNYYGNSFAVGPWGQGTLVTVSS
VL: EIVLTQSPATLSLSPGERATLSCRASQGISDYLHWYQQKPGEAPRLLIKYTSQPATGIPARFSGSGSGTDFTLTISSLEPEDFGVYYCQNGHSFPLTFGAGTKLELK
notes: as for B1
B10: VH SEQ ID NO 562 / VL SEQ ID NO 358 (antibody, IgG4, V domains shown)
VH: QVQLQESGPGLVKPSDTLSLTCAVSGYSISSDSAWSWIRQPPGKGLEWIGYIQYSGSTNYNPSLKSRVTMSRDTSKNQFSLKLSSVTALDTAVYYCARSVNYYGNSFAVGPWGQGTLVTVSS
VL: EIVLTQSPATLSLSPGERATLSCRASQGISDYLHWYQQKPGQAPRLLIKYTSQPATGIPARFSGSGSGTDFTLTISSLEPEDFAVYYCQNGHSFPLTFGQGTKLEIK
notes: as for B1
B11: VH SEQ ID NO 562 / VL SEQ ID NO 438 (antibody, IgG4, V domains shown)
VH: QVQLQESGPGLVKPSDTLSLTCAVSGYSISSDSAWSWIRQPPGKGLEWIGYIQYSGSTNYNPSLKSRVTMSRDTSKNQFSLKLSSVTALDTAVYYCARSVNYYGNSFAVGPWGQGTLVTVSS
VL: EIVLTQSPATLSLSPGERATLSCRASQGVSDYLAWYQQKPGQAPRLLIKYASQPATGIPARFSGSGSGTDFTLTISSLEPEDVAVYYCQNGHSFPLTFGQGTKLEIK
notes: as for B1
B12: VH SEQ ID NO 562 / VL SEQ ID NO 390 (antibody, IgG4, V domains shown)
VH: QVQLQESGPGLVKPSDTLSLTCAVSGYSISSDSAWSWIRQPPGKGLEWIGYIQYSGSTNYNPSLKSRVTMSRDTSKNQFSLKLSSVTALDTAVYYCARSVNYYGNSFAVGPWGQGTLVTVSS
VL: EIVLTQSPATLSLSPGERATLSCRASQGVSDYLAWYQQKPGEAPRLLIKYASQPATGIPARFSGSGSGTDFTLTISSLEPEDFAVYYCQNGHSFPLTFGQGTKLEIK
notes: as for B1
B13: VH SEQ ID NO 562 / VL SEQ ID NO 350 (antibody, IgG4, V domains shown)
VH: QVQLQESGPGLVKPSDTLSLTCAVSGYSISSDSAWSWIRQPPGKGLEWIGYIQYSGSTNYNPSLKSRVTMSRDTSKNQFSLKLSSVTALDTAVYYCARSVNYYGNSFAVGPWGQGTLVTVSS
VL: EIVLTQSPATLSLSPGERATLSCRASQGISDYLHWYQQKPGQAPRLLIKYTSQPATGIPARFSGSGSGTDFTLTISSLEPEDFAVYYCQNGHSFPLTFGAGTKLELK
notes: as for B1
B14: VH SEQ ID NO 562 / VL SEQ ID NO 334 (antibody, IgG4, V domains shown)
VH: QVQLQESGPGLVKPSDTLSLTCAVSGYSISSDSAWSWIRQPPGKGLEWIGYIQYSGSTNYNPSLKSRVTMSRDTSKNQFSLKLSSVTALDTAVYYCARSVNYYGNSFAVGPWGQGTLVTVSS
VL: EIVLTQSPATLSLSPGERATLSCRASQGISDYLHWYQQKPGQAPRLLIKYASQPATGIPARFSGSGSGTDFTLTISSLEPEDFAVYYCQNGHSFPLTFGQGTKLEIK
notes: as for B1
B15: VH SEQ ID NO 562 / VL SEQ ID NO 366 (antibody, IgG4, V domains shown)
VH: QVQLQESGPGLVKPSDTLSLTCAVSGYSISSDSAWSWIRQPPGKGLEWIGYIQYSGSTNYNPSLKSRVTMSRDTSKNQFSLKLSSVTALDTAVYYCARSVNYYGNSFAVGPWGQGTLVTVSS
VL: EIVLTQSPATLSLSPGERATLSCRASQGLSDYLAWYQQKPGEAPRLLIKYASQPATGIPARFSGSGSGTDFTLTISSLEPEDFAVYYCQNGHSFPLTFGQGTKLEIK
notes: as for B1
B16: VH SEQ ID NO 562 / VL SEQ ID NO 406 (antibody, IgG4, V domains shown)
VH: QVQLQESGPGLVKPSDTLSLTCAVSGYSISSDSAWSWIRQPPGKGLEWIGYIQYSGSTNYNPSLKSRVTMSRDTSKNQFSLKLSSVTALDTAVYYCARSVNYYGNSFAVGPWGQGTLVTVSS
VL: EIVLTQSPATLSLSPGERATLSCRASQGVSDYLAWYQQKPGQAPRLLIKYASQPATGIPARFSGSGSGTDFTLTISSLEPEDFAVYYCQNGHSFPLTFGAGTKLEIK
notes: as for B1
B17: VH SEQ ID NO 562 / VL SEQ ID NO 454 (antibody, IgG4, V domains shown)
VH: QVQLQESGPGLVKPSDTLSLTCAVSGYSISSDSAWSWIRQPPGKGLEWIGYIQYSGSTNYNPSLKSRVTMSRDTSKNQFSLKLSSVTALDTAVYYCARSVNYYGNSFAVGPWGQGTLVTVSS
VL: EIVLTQSPATLSLSPGERATLSCRASQGVSDYLHWYQQKPGEAPRLLIKYASQPATGIPARFSGSGSGTDFTLTISSLEPEDFAVYYCQNGHSFPLTFGQGTKLEIK
notes: as for B1
B18: VH SEQ ID NO 562 / VL SEQ ID NO 310 (antibody, IgG4, V domains shown)
VH: QVQLQESGPGLVKPSDTLSLTCAVSGYSISSDSAWSWIRQPPGKGLEWIGYIQYSGSTNYNPSLKSRVTMSRDTSKNQFSLKLSSVTALDTAVYYCARSVNYYGNSFAVGPWGQGTLVTVSS
VL: EIVLTQSPATLSLSPGERATLSCRASQGISDYLAWYQQKPGQAPRLLIKYASQPATGIPARFSGSGSGTDFTLTISSLEPEDFAVYYCQNGHSFPLTFGQGTKLEIK
notes: as for B1
B19: VH SEQ ID NO 562 / VL SEQ ID NO 414 (antibody, IgG4, V domains shown)
VH: QVQLQESGPGLVKPSDTLSLTCAVSGYSISSDSAWSWIRQPPGKGLEWIGYIQYSGSTNYNPSLKSRVTMSRDTSKNQFSLKLSSVTALDTAVYYCARSVNYYGNSFAVGPWGQGTLVTVSS
VL: EIVLTQSPATLSLSPGERATLSCRASQGVSDYLAWYQQKPGQAPRLLIKYASQPATGIPARFSGSGSGTDFTLTISSLEPEDFAVYYCQNGHSFPLTFGQGTKLEIK
notes: as for B1
B20: VH SEQ ID NO 562 / VL SEQ ID NO 318 (antibody, IgG4, V domains shown)
VH: QVQLQESGPGLVKPSDTLSLTCAVSGYSISSDSAWSWIRQPPGKGLEWIGYIQYSGSTNYNPSLKSRVTMSRDTSKNQFSLKLSSVTALDTAVYYCARSVNYYGNSFAVGPWGQGTLVTVSS
VL: EIVLTQSPATLSLSPGERATLSCRASQGISDYLHWYQQKPGEAPRLLIKYTSQPATGIPARFSGSGSGTDFTLTISSLEPEDFAVYYCQNGHSFPLTFGQGTKLEIK
notes: as for B1

For this test, the target named is T1, recombinant human activated Factor VII …. As to the kind of experiment: BLI (Fortebio).
Regarding B1, the Kd worked out at 21 nM.

In the case of B2, the dissociation constant (Kd) stood at 1.2 nM.

In the case of B3, the dissociation constant Kd was 7.9 nM.

Take B4: the equilibrium dissociation constant (Kd) was 19 nM.

As to B5, the Kd stood at 18 nM.

Regarding B6, the Kd is 1.3 nM.

Regarding B7, the dissociation constant Kd is 18 nM.

For the molecule B8, the Kd turned out to be 22 nM.

As to B9, the Kd turned out to be 0.78 nM.

For the molecule B10, the dissociation constant (Kd) is 0.95 nM.

In the case of B11, the Kd came out at 11 nM.

For the molecule B12, the Kd came out at 10 nM.

B13: the Kd was found to be 0.93 nM.

In the case of B14, the Kd is 1.2 nM.

With B15, the Kd was determined as 8.3 nM.

Consider B16, for which the dissociation constant Kd is 7.7 nM.

As for B17, the Kd was found to be 1.4 nM.

In the case of B18, the dissociation constant (Kd) is 6.4 nM.

As for B19, the dissociation constant Kd was found to be 8.8 nM.

B20: the dissociation constant Kd came to 0.92 nM.
